From US20220289819A1 (GREEN CROSS, published 2022)

T1: hCEACAM1 (R&D Systems, Cat. No. 2244-CM) (human, UniProt P13688 35-428)
T1 construct: Anti-His (His1K) biosensors were used, which implies a His tag
T1 sequence: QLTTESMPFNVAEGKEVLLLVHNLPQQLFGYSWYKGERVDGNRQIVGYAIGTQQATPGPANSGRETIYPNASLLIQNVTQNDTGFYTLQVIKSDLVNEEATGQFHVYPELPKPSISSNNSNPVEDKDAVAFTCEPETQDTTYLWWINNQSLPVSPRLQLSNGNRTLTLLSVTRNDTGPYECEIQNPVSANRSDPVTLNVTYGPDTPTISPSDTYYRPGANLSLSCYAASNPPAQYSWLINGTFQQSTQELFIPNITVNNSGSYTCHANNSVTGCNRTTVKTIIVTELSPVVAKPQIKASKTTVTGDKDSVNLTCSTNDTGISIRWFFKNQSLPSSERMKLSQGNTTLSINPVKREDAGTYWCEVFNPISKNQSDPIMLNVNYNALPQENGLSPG

T2: hCEACAM6-Fc (human), P40199
T2 chain: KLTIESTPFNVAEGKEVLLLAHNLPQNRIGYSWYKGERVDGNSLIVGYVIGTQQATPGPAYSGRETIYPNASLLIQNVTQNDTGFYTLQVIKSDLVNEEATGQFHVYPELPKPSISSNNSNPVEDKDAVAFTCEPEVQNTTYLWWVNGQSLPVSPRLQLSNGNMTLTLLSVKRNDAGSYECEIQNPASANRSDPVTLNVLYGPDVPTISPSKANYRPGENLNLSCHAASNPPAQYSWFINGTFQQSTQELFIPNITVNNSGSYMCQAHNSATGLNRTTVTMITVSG

B1: anti-CEACAM1 antibody (antibody, V domains shown)
VH: EVQLLESGGGLVQPGGSLRLSCAASGFTFSNYAMSWVRQAPGKGLEWVSVISHGGGSIYYADSVKGRLTISRDNSKNTLYLQMNSLRAEDTAVYYCARDPTKGYAPTFDYWGQGTLVTVSS
VL: QSVLTQPPSASGTPGQRVTISCSGSSSNIGNNYVSWYQQLPGTAPKLLIYADSRRPSGVPDRFSGSKSGTSASLAISGLRSEDEADYYCGAWDLSLNGYVFGGGTKLTVLG
notes: also called anti-CEACAM1 antibody according to an embodiment
B2: hCEACAM1-Fc, P13688 35-428 (Fc fusion, not shown: a dimerising Fc or GST)
chain: T1 sequence
modifications: here or on the partner: biotin-labeled when used as the soluble partner (sites not given)
B3: hCEACAM1-Fc (Fc fusion)
chain: T1 sequence
modifications: biotin-labeled when used as the soluble partner (sites not given)
notes: also called biotin-labeled hCEACAM1-Fc; not shown: pr

Assays:
[1] = biological target: T1, hCEACAM1 (R&D Systems, Cat. No. 2244-CM); assay: BLI (Octet QKe), hCEACAM1 on anti-His biosensor, antibody 6.25-400 nM in solution
Procedure: Quantitative binding strength of the anti-CEACAM1 antibody to CEACAM1 was measured using the Octet QKe (Pall ForteBio). The anti-CEACAM1 antibody was subjected to a ½ concentration dilution 6 times at a concentration of 400 nM, and the antibodies at concentrations of 400 nM, 200 nM, 100 nM, 50 nM, 25 nM, 12.5 nM, and 6.25 nM were added into a Greiner 96-well-plate (Greiner, Cat. No. 655209) in an amount of 200 μL each in a row, and the last well was added at a concentration of 0 nM. In another row, hCEACAM1 (R&D Systems, Cat. No. 2244-CM) was diluted to a concentration of […], and was added in an amount of 200 μL each in a row.
Washing buffer, neutralization buffer, and baseline buffer were diluted 10 times with Reagent/Kinetics buffer (10×) (Fortebio, Cat. No. 18-1092) and was added in an amount of 200 μL in each row, and regeneration buffer was added in an amount of 200 μL in a row. A separate Greiner 96-well-plate was prepared, and Reagent/Kinetics buffer (IX) was added in an amount of 200 μL to as many wells as the number of biosensors to be used, and the Biosensors/Anti-His(His1K) (Fortebio, Cat. No. 18)-5120) Cassette was mounted.

hCEACAM1-Fc [2] = biological target: B3; assay: competition ELISA: antibody titrated from 60 µg/mL, mixed with biotin-labeled hCEACAM1-Fc, added to coated hCEACAM6-Fc
Procedure: (§1) In another 96-well-plate, the anti-CEACAM1 antibody was serially diluted 2-fold starting from a concentration of 60 μg/mL and added into 11 wells, and the last well was added with only PBS (to which 1% BSA was added), and then biotin-labeled hCEACAM 1-Fc was added in the same amount as the diluted anti-CEACAM1 antibody to a concentration of 0.5 μg/mL, and reacted at room temperature for 1 hour. After 1 hour, 100 μL each of a mixture of the anti-CEACAM1 antibody and the biotin-labeled hCEACAM1-Fc were added to the blocked plate and reacted again at room temperature for 1 hour.
(§2) After 1 hour, each well was washed 3 times by adding 300 μL of PBS (to which 0.05% Tween 20 was added) thereto, and then streptavidin-peroxidase polymer (Sigma, S2438-250UG) was diluted at a 1:5,000 ratio in PBS (to which 1% BSA was added), and 100 μL each of the resultant was added to each well, and reacted at 37° C. for 40 minutes. Each well where the reaction was completed was washed 3 by adding 300 μL of PBS (to which 0.05% Tween 20 was added) thereto, and then 100 μL each of TMB microwell peroxidase substrate (KPL, 50-76-03) was added thereto, and reacted for 5 minutes. To terminate the reaction, an equal amount of sulfuric acid (Sigma-Aldrich, 339741) was added and the OD value was measured at 450 nm wavelength using an ELISA reader.

hCEACAM1-Fc [3] = biological target: B3; assay: competition ELISA: antibody titrated from 60 µg/mL, mixed with biotin-labeled hCEACAM1-Fc, added to coated hCEACAM1-Fc
Procedure: (§3) In another 96-well-plate, anti-CEACAM1 antibody was serially diluted 2-fold starting from a concentration of 60 μg/ml, and added into 11 wells, and the last well was added only with PBS to which 1% BSA was added, and then biotin-labeled hCEACAM1-Fc was added in the same amount as the anti-CEACAM1 antibody (which was diluted to 0.5 μg/mL), and reacted at room temperature for 1 hour. After 1 hour, 100 μL each of a mixture of the anti-CEACAM1 antibody and the biotin-labeled hCEACAM1-Fc were added to the blocked plate and reacted again at room temperature for 1 hour.
(§4) After 1 hour, each well was washed 3 times by adding 300 μL of PBS (to which 0.05% Tween 20 was added) thereto, and then streptavidin-peroxidase polymer (Sigma, S2438-250UG) was diluted at a 1:5,000 ratio in PBS (to which 1% BSA was added), 100 μL each of the resultant was added to each well, and reacted at 37° C. for 40 minutes. Each well where the reaction was completed was washed 3 times by adding 300 μL of PBS (to which 0.05% Tween 20 was added), and then 100 μL of TMB microwell peroxidase substrate (KPL, 50-76-03) was added thereto and reacted for 5 minutes. To terminate the reaction, an equal amount of sulfuric acid (Sigma-Aldrich, 339741) was added and the OD value was measured at 450 nm wavelength using an ELISA reader.

hCEACAM1-Fc [4] = biological target: B3; assay: competition ELISA, hCEACAM6-Fc coated, antibody pre-mixed with biotin-labeled hCEACAM1-Fc; blocked interaction hCEACAM1-Fc/hCEACAM6-Fc
Procedure: as §1, §2

[5] = biological target: T1, hCEACAM1 (R&D Systems, Cat. No. 2244-CM); assay: not stated at this place; presumably the BLI of Experimental Example 4; summary statement in the description, no assay named
hCEACAM1-Fc [6] = biological target: B3; assay: competition ELISA, hCEACAM1-Fc coated, antibody pre-mixed with hCCM1-Fc-biotin 500 ng/mL; blocked interaction hCEACAM1-Fc/hCEACAM1-Fc
Procedure: as §3, §4

[7] = biological target: T2, hCEACAM6-Fc (human), P40199; assay: ELISA, coated hCEACAM6-Fc (2.5 µg/mL), biotin-labeled hCEACAM1-Fc titrated from 150 µg/mL; details: remark: other sources report otherwise
[8] = biological target: T2, hCEACAM6-Fc (human), P40199; assay: ELISA, hCEACAM6-Fc coated, biotin-labeled hCEACAM1-Fc titrated, streptavidin-peroxidase detection; details: remark: other sources report otherwise
[9] = biological target: the molecule itself; assay: ELISA, coated hCEACAM1-Fc (2.5 µg/mL), biotin-labeled hCEACAM1-Fc titrated from 150 µg/mL
Procedure: (§5) The hCEACAM1-Fc prepared in Example 5.1 was diluted with PBS to a concentration of 2.5 μg/mL, and then 100 μL each of the resultant was added into a NUNC immuno module (NUNC, 468667) plate and coated at 4° C. overnight. On the next day, after washing with PBS (to which 0.05% Tween 20 was added), 300 μL of PBS (to which 1% BSA was added) was added to each well of the coated plate, and blocking was performed by reacting at room temperature for 2 hours. In addition, after washing 3 times with PBS (to which 0.05% Tween 20 was added), biotin-labeled hCEACAM1-Fc was serially diluted 3-fold starting from a concentration of 150 μg/mL, and added into 11 wells in the plate coated with hCEACAM1-Fc. The last well was added only with PBS to which 1% BSA was added. The wells were reacted at 37° C. for 1 hour. After 1 hour, each well was washed 3 times by adding 300 μL of PBS (to which 0.05% Tween 20 was added), and then streptavidin-peroxidase polymer (Sigma, S2438-250UG) was diluted at a 1:5,000 ratio in PBS (to which 1% BSA was added), 100 μL each of the resultant was added into each well, and reacted at 37° C. for 40 minutes. […] To terminate the reaction, an equal amount of sulfuric acid (Sigma-Aldrich, 339741) was added and the OD value was measured at 450 nm wavelength using an ELISA reader.

[10] = biological target: the molecule itself; assay: ELISA, hCEACAM1-Fc coated, biotin-labeled hCEACAM1-Fc titrated, streptavidin-peroxidase detection
Procedure: as §5

B1
Kd [1]: 3.39 nM
koff [1]: 0.000567 s⁻¹
kon [1]: 163000 M⁻¹ s⁻¹
IC50 (hCEACAM1-Fc [2]): 0.795 µg/mL
IC50 (hCEACAM1-Fc [3]): 1.05 µg/mL
IC50 (read off the curve) (hCEACAM1-Fc [4]): ~1 µg/mL
Kd [5]: 3.36 nM
IC50 (read off the curve) (hCEACAM1-Fc [6]): ~0.8 µg/mL

B2
EC50 [7]: 0.305 µg/mL
EC50 (read off the curve) [8]: 0.3 µg/mL

B3
EC50 [9]: 0.286 µg/mL
EC50 (read off the curve) [10]: ~0.3 µg/mL
